In paper PMC8178401:

Experiments:
[1] = target: MsSepF_(core) (C-terminal FtsZ-binding core of Methanobrevibacter smithii SepF, residues 54-149) (Methanobrevibacter smithii); experiment: not stated; MsSepFcore in solution (Supplementary Fig. 6); method not given
[2] = target: MsSepF_(core) (C-terminal FtsZ-binding core of Methanobrevibacter smithii SepF, residues 54-149) (Methanobrevibacter smithii); experiment: SPR; Biacore T200, 25 °C, 150 mmol/L NaCl, 25 mmol/L Hepes pH 8; MsSepFcore amine-coupled on CM5 (3200 and 5000 RU), FtsZCTD peptide flowed over; steady-state fit; apparent Kd

MsSepF_(core) (C-terminal FtsZ-binding core of Methanobrevibacter smithii SepF, residues 54-149) (Methanobrevibacter smithii), sequence (main, as listed by the source): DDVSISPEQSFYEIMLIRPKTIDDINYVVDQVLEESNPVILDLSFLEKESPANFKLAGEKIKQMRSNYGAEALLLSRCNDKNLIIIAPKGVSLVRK

stoichiometry N [1] | Kd [2] | Molecule
2 | – | MsSepF_(core) (C-terminal FtsZ-binding core of Methanobrevibacter smithii SepF, residues 54-149) (domain or fragment)
– | 84 µM | NEDQLDDFIDGIF [FtsZCTD peptide (C-terminal domain of Methanobrevibacter smithii FtsZ)]
